Reference: the supplement of paper PMC10567573

B1: ZNF8 (parent)
chain: SLGRHKRTHTGEKPYTCSVCGKSF

Variants of: B1
Test: protein stability index of a GFP-peptide fusion (GPS, HEK-293T) (PSI 1-6); higher = more stable
Conditions: c terminus: a fixed tail appended
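Also: lentivirally expressed fusions sorted by FACS into six bins by GFP to DsRed ratio, PSI derived from sequencing read proportions per bin multiplied by bin number.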

Going from SLGRHKRTHTGEKPYTCSVWGKSF to SLGRHKRTHTGEKPYTCSVSGKSF, the protein stability index rises from 2.4 to 4.

Going from SLGRHKRTHTGEKPYTCSVHGKSF to SLGRHKRTHTGEKPYTCSVVGKSF, the protein stability index rises from 2.79 to 3.13.

Going from SLGRHKRTHTGEKPYTCSVGGKSF to SLGRHKRTHTGEKPYTCSVEGKSF, the protein stability index rises from 3.18 to 3.78.

Compared with SLGRHKRTHTGEKPYTCSVNGKSF, SLGRHKRTHTGEKPYTCSVQGKSF is lower in protein stability index: 3.51 for the first, 3.42 for the second.

Going from SLGRHKRTHTGEKPYTCSVIGKSF to SLGRHKRTHTGEKPYTCSVTGKSF, the protein stability index rises from 2.94 to 3.44.

First: SLGRHKRTHTGEKPYTCSVPGKSF
Second: SLGRHKRTHTGEKPYTCSVYGKSF
The protein stability index of the first is higher: 3.36 for the first, 2.94 for the second.

First: SLGRHKRTHTGEKPYTCSVLGKSF
Second: SLGRHKRTHTGEKPYTCSVDGKSF
The protein stability index of the first is lower: 2.45 for the first, 3.99 for the second.

First: SLGRHKRTHTGEKPYTCSVMGKSF
Second: SLGRHKRTHTGEKPCTCSVCGKSF
The protein stability index of the first is lower: 3.36 for the first, 3.79 for the second.

Compared with SLGRHKRTHTGEKPLTCSVCGKSF, SLGRHKRTHTGEKPHTCSVCGKSF is lower in protein stability index: 2.44 for the first, 2.34 for the second.

Compared with SLGRHKRTHTGEKPGTCSVCGKSF, SLGRHKRTHTGEKPQTCSVCGKSF is lower in protein stability index: 2.45 for the first, 2.33 for the second.

Compared with SLGRHKRTHTGEKPMTCSVCGKSF, SLGRHKRTHTGEKPDTCSVCGKSF is lower in protein stability index: 2.52 for the first, 2.46 for the second.

Going from SLGRHKRTHTGEKPITCSVCGKSF to SLGRHKRTHTGEKPRTCSVCGKSF, the protein stability index rises from 2.59 to 2.61.

First: SLGRHKRTHTGEKPWTCSVCGKSF
Second: SLGRHKRTHTGEKPFTCSVCGKSF
The protein stability index of the first is higher: 2.63 for the first, 2.36 for the second.

Compared with SLGRHKRTHTGEKPSTCSVCGKSF, SLGRHKRTHTGEKPNTCSVCGKSF is lower in protein stability index: 2.9 for the first, 2.33 for the second.

Going from SLGRHKRTHTGEKPETCSVCGKSF to SLGRHKRTHTGEKPPTCSVCGKSF, the protein stability index falls from 2.89 to 2.29.

First: SLGRHKRTHTGEKPTTCSVCGKSF
Second: SLGRHKRTHTGEKPVTCSVCGKSF
The protein stability index of the first is lower: 2.3 for the first, 2.44 for the second.

Compared with SLGRHKRTHTGEKPKTCSVCGKSF, SLGRHKRTHTGEKPATCSVCGKSF is lower in protein stability index: 2.72 for the first, 2.58 for the second.

Compared with SLGRHKRTHTGEKPYTCSVCGKSC, SLGRHKRTHTGEKPYTCSVCGKSD is lower in protein stability index: 4.13 for the first, 3.83 for the second.

First: SLGRHKRTHTGEKPYTCSVCGKSA
Second: SLGRHKRTHTGEKPYTCSVCPKSF
The protein stability index of the first is lower: 3.1 for the first, 3.12 for the second.

Going from SLGRHKRTHTGEKPYTCSVCYKSF to SLGRHKRTHTGEKPYTCSVCMKSF, the protein stability index rises from 1.92 to 2.71.

First: SLGRHKRTHTGEKPYTCSVCRKSF
Second: SLGRHKRTHTGEKPYTCSVCSKSF
The protein stability index of the first is higher: 3.03 for the first, 2.94 for the second.

First: SLGRHKRTHTGEKPYTCSVCCKSF
Second: SLGRHKRTHTGEKPYTCSVCVKSF
The protein stability index of the first is lower: 2 for the first, 2.17 for the second.

Compared with SLGRHKRTHTGEKPYTCSVCEKSF, SLGRHKRTHTGEKPYTCSVCNKSF is higher in protein stability index: 2.1 for the first, 2.98 for the second.

First: SLGRHKRTHTGEKPYTCSVCHKSF
Second: SLGRHKRTHTGEKPYTCSVCDKSF
The protein stability index of the first is lower: 2.78 for the first, 3.11 for the second.

First: SLGRHKRTHTGEKPYTCSVCAKSF
Second: SLGRHKRTHTGEKPYTCSVCFKSF
The protein stability index of the first is lower: 2.35 for the first, 2.5 for the second.

First: SLGRHKRTHTGEKPYTCSVCKKSF
Second: SLGRHKRTHTGEKPYTCSVCTKSF
The protein stability index of the first is higher: 3.36 for the first, 3.14 for the second.

Going from SLGRHKRTHTGEKPYTCSVCIKSF to SLGRHKRTHTGEKPYTCSVCLKSF, the protein stability index falls from 2.01 to 1.9.

First: SLGRHKRTHTGEKPYTCSVCQKSF
Second: SLGRHKRTHTGEKPYTCSVCWKSF
The protein stability index of the first is higher: 2.59 for the first, 1.88 for the second.

Compared with SLGRHKRTHTGEKPYTCMVCGKSF, SLGRHKRTHTGEKPYTCYVCGKSF is higher in protein stability index: 2.58 for the first, 2.71 for the second.

Compared with SLGRHKRTHTGEKPYTCWVCGKSF, SLGRHKRTHTGEKPYTCCVCGKSF is lower in protein stability index: 2.84 for the first, 2.63 for the second.

First: SLGRHKRTHTGEKPYTCKVCGKSF
Second: SLGRHKRTHTGEKPYTCEVCGKSF
The protein stability index of the first is lower: 2.98 for the first, 3.38 for the second.

First: SLGRHKRTHTGEKPYTCGVCGKSF
Second: SLGRHKRTHTGEKPYTCRVCGKSF
The protein stability index of the first is higher: 2.83 for the first, 2.54 for the second.

Compared with SLGRHKRTHTGEKPYTCAVCGKSF, SLGRHKRTHTGEKPYTCLVCGKSF is lower in protein stability index: 2.94 for the first, 2.44 for the second.

Compared with SLGRHKRTHTGEKPYTCFVCGKSF, SLGRHKRTHTGEKPYTCHVCGKSF is higher in protein stability index: 2.08 for the first, 2.26 for the second.

Going from SLGRHKRTHTGEKPYTCTVCGKSF to SLGRHKRTHTGEKPYTCVVCGKSF, the protein stability index rises from 2.68 to 2.83.

First: SLGRHKRTHTGEKPYTCPVCGKSF
Second: SLGRHKRTHTGEKPYTCQVCGKSF
The protein stability index of the first is lower: 3 for the first, 3.16 for the second.

Going from SLGRHKRTHTGEKPYTCDVCGKSF to SLGRHKRTHTGEKPYTCNVCGKSF, the protein stability index falls from 2.76 to 2.02.

First: SLGRHKRTHTGEKPYTCIVCGKSF
Second: SLGRHKRTHTGEKPYTRSVCGKSF
The protein stability index of the first is lower: 2.34 for the first, 2.75 for the second.

First: SLGRHKRTHTGEKPYTMSVCGKSF
Second: SLGRHKRTHTGEKPYTPSVCGKSF
The protein stability index of the first is lower: 2.96 for the first, 3.17 for the second.

Compared with SLGRHKRTHTGEKPYTLSVCGKSF, SLGRHKRTHTGEKPYTASVCGKSF is higher in protein stability index: 2.33 for the first, 3.81 for the second.

First: SLGRHKRTHTGEKPYTWSVCGKSF
Second: SLGRHKRTHTGEKPYTDSVCGKSF
The protein stability index of the first is lower: 2.81 for the first, 4.3 for the second.

Going from SLGRHKRTHTGEKPYTSSVCGKSF to SLGRHKRTHTGEKPYTQSVCGKSF, the protein stability index rises from 3.3 to 3.76.

Going from SLGRHKRTHTGEKPYTTSVCGKSF to SLGRHKRTHTGEKPYTESVCGKSF, the protein stability index rises from 3.19 to 3.77.

Going from SLGRHKRTHTGEKPYTVSVCGKSF to SLGRHKRTHTGEKPYTHSVCGKSF, the protein stability index falls from 3.58 to 3.32.

Going from SLGRHKRTHTGEKPYTNSVCGKSF to SLGRHKRTHTGEKPYTKSVCGKSF, the protein stability index falls from 3.78 to 3.65.

Going from SLGRHKRTHTGEKPYTISVCGKSF to SLGRHKRTHTGEKPYTYSVCGKSF, the protein stability index rises from 2.38 to 2.77.

First: SLGRHKRTHTGEKPYTFSVCGKSF
Second: SLGRHKRTHTGEKPYTGSVCGKSF
The protein stability index of the first is lower: 2.4 for the first, 3.49 for the second.
